Drawing on paper doi:10.1101/2021.03.31.437858, this text covers stoichiometry N, percent of monomeric COX engaged in the complex and stoichiometry N (AIFM1 per COX monomer) for 3 substances.

Experiment in all cases: native gel or EMSA
The target of test [1] is Apoptosis Inducing Factor 1 (AIFM1) (bovine (endogenous in bovine heart mitochondria)).
Test [2] has as its target cytochrome c oxidase (COX), monomeric (bovine (endogenous in bovine heart mitochondria)) (UniProt P00429).
Test [3] addresses complex III (CIII) (bovine (endogenous in bovine heart mitochondria)).
The target in test [4] is complex V (CV) (bovine (endogenous in bovine heart mitochondria)).

Sequence of UniProt P00429 (P00429 whole entry, looked up): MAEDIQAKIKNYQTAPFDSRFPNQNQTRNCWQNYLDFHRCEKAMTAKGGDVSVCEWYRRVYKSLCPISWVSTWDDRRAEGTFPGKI

The term stoichiometry N denotes a count of units in the complex or per binding partner. In the case of “Apoptosis Inducing Factor 1 (AIFM1) (natural protein)”, in test [1], the stoichiometry N came out at 2. In test [2], this substance registered a percent of monomeric COX engaged in the complex of 10% and a stoichiometry N (AIFM1 per COX monomer) of 2.
On to complex III (CIII), for which the stoichiometry N in test [3] worked out at 2.
complex V (CV) yielded a stoichiometry N in test [4] of 2.
